In patent publication CN113321729A (DONGDA BIOTECHNOLOGY SUZHOU CO LTD, dated 2021) one finds IC50, binding result and EC50 data, which are given here for 7 molecules.

One may read the IC50 as the concentration that gives 50% inhibition. A high value points to a need for much substance. As a reminder, the EC50 is the concentration that produces a half-maximal response.

The chains are these.
T1: 携带组氨酸标签的人IL-12(IL-12-His) (human, UniProt P29459 23-219; P29460 23-328)
T1 construct: Recombinant His-tagged human IL-12 made in mammalian cells; Coated on the plate in the ELISA; also called IL-12蛋白; biotin标记的IL-12-His
T1 sequence (looked up) 1: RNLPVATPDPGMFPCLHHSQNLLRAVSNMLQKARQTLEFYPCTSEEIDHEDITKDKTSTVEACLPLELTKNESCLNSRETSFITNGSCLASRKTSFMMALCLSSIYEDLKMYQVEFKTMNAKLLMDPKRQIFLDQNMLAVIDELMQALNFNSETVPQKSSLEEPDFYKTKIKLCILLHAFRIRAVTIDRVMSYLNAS
T1 sequence (looked up) 2: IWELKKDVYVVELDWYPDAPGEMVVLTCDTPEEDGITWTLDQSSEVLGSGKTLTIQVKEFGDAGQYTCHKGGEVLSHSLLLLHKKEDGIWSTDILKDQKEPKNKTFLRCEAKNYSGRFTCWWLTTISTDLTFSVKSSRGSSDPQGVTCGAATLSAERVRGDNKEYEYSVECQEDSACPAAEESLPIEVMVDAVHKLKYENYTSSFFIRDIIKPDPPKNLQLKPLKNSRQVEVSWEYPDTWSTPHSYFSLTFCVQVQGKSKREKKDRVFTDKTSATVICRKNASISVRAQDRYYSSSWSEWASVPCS

B1: hu2A3 (antibody, V domains shown)
VH: QVQLVQSGAEVKKPGASVKVSCKASGFNIKDTYMHWVRQAPGQRLEWIGKIDPANGNTKYDPKFQGRATITADTSASTAYMELSSLRSEDTAVYYCSRRFYDSGFYYYFYIWGQGTLVTVSS
VL: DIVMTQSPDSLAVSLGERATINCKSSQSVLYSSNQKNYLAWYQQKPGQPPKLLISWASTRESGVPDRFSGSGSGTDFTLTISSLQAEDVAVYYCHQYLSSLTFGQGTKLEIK
notes: also called 2A3人源化抗体; 人源化抗体2A3
B2: hu11B4 (antibody, V domains shown)
VH: QVQLVQSGAEVKKPGASVKVSCKASGYAFTDYKMHWVRQAPGQRLEWIGHIYTYNGGADYNQKFKNRATLTVDISASTAYMELSSLRSEDTAVYYCATSGPFAYWGQGTLVTVSS
VL: EIVMTQSPATLSVSPGERATLSCKASQNVGTNVAWYQQKPGQAPRALIYSASKRFSGIPARFSGSGSGTEFTLTISSLQSEDFAVYYCLQYNNFPFTFGQGTKLEIK
notes: also called 11B4人源化抗体; 人源化抗体11B4
B3: Ustekinumab (antibody, V domains shown)
VH: EVQLVQSGAEVKKPGESLKISCKGSGYSFTTYWLGWVRQMPGKGLDWIGIMSPVDSDIRYSPSFQGQVTMSVDKSITTAYLQWNSLKASDTAMYYCARRRPGQGYFDFWGQGTLVTVSS
VL: DIQMTQSPSSLSASVGDRVTITCRASQGISSWLAWYQQKPEKAPKSLIYAASSLQSGVPSRFSGSGSGTDFTLTISSLQPEDFATYYCQQYNIYPYTFGQGTKLEIK
B4: 2A3 (antibody, V domains shown)
VH: EVQLQQSGAELVKPGASVKLSCTASGFNIKDTYMHWLKQRPEQGLEWIGKIDPANGNTKYDPKFQGKATITADTSSNTAYLQLSSLTSEDTAVYYCSRRFYDSGFYYYFYIWGAGTTVTVSS
VL: NIMMTQSPSSLAVSAGEKVTMYCKSSQSVLYSSNQKNYLAWYQQKPGQSPKLLISWASTRESGVPDRFTGSGSGTDFTLTISSVQAEDLAVYYCHQYLSSLTFGAGTKLELK
notes: Mouse hybridoma antibody purified on Protein A; also called IL-12杂交瘤抗体
B5: 9E2 (antibody, V domains shown)
VH: EVQLQQSGAELVRPGASVKLSCTASGVNIKDYYMHWVKQRPEKGLEWIGMIDPEDGDTEYAPRFQAKATMTADTSSNTAYLQLNSLTSEDTAVYYCTITTVVRYFDVWGTGTTVRVSS
VL: DLVLSQSPATLSVTPGDSVSLSCRASQSISINLHWYQQKSHESPRLLIKYASQSISGIPSRFSGSGSGTDFTLSINSVETEDFGMYFCQQSNSWPFTFGGGTKLEIK
notes: as for B4
B6: 1B6 (antibody, V domains shown)
VH: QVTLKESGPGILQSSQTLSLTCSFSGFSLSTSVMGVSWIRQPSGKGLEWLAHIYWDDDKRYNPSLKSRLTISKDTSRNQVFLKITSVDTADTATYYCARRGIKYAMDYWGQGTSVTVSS
VL: NIVMTQTPKFLLVSAGDRVTITCKASQSVSNDVAWYQQKPGQSPKLLIYYASNRYTGVPDRFTGSGYGTDFTFTISTVQAEDLAVYFCQQDYTSPWTFGGGTKLEIK
notes: as for B4
B7: 19A4 (antibody, V domains shown)
VH: EVQLVESGGGLVKPGGSLQVSCAASGFSFSSYGMSWVRQTPDKRLEWVATIGSGGLYTYSPDTVKGRFSISRDDAKNTLYLQMNSLTSEDTAMYYCATSGPFAYWGQGTLVTVSA
VL: DIKMTQSPSSMYASLGERVTITCKASQDINRNLNWFQQKPGNSPKTLIIRTNRLVDGVPSRFSGSGSGQVYSLTVSSLEFGDMGIYFCLQFDEFPWTFGGGTTLEIK
notes: as for B4

The first test deals with T1, 携带组氨酸标签的人IL-12(IL-12-His). In words: FACS, blocking of biotin-labelled IL-12-His binding to CHO-IL-12R cells. (Flow cytometry measures light scatter and fluorescence of single cells or particles in a stream.)
With B1, the IC50 turned out to be 0.398 µg/mL.

Regarding B2, the IC50 stood at 0.323 µg/mL.

B3: the IC50 is 0.224 µg/mL.

A further test has as its target T1, 携带组氨酸标签的人IL-12(IL-12-His). Put plainly: ELISA, IL-12-His coated on plate. A general note: An ELISA detects its analyte on a solid surface through an enzyme-linked reagent.
B4: the binding result is “binds”.

B5: the binding result is reported as “binds”.

Consider B6, for which the binding result is reported as “binds”.

For B7, the binding result is “binds”.

A further test addresses T1, 携带组氨酸标签的人IL-12(IL-12-His). Put plainly: ELISA, IL-12-His coated on plate. The source holds these as a separate data set.
B1 had an EC50 of 0.0571 µg/mL.

B2: the midpoint of the response, the EC50, lay at 0.0517 µg/mL.

The molecule B3 came in with an EC50 of 0.0718 µg/mL.
